# B1: Band 3 anion transport protein, P02730 (parent)
# chain: MEELQDDYEDMMEENLEQEEYEDPDIPESQMEEPAAHDTEATATDYHTTSHPGTHKVYVELQELVMDEKNQELRWMEAARWVQLEENLGENGAWGRPHLSHLTFWSLLELRRVFTKGTVLLDLQETSLAGVANQLLDRFIFEDQIRPQDREELLRALLLKHSHAGELEALGGVKPAVLTRSGDPSQPLLPQHSSLETQLFCEQGDGGTEGHSPSGILEKIPPDSEATLVLVGRADFLEQPVLGFVRLQEAAELEAVELPVPIRFLFVLLGPEAPHIDYTQLGRAAATLMSERVFRIDAYMAQSRGELLHSLEGFLDCSLVLPPTDAPSEQALLSLVPVQRELLRRRYQSSPAKPDSSFYKGLDLNGGPDDPLQQTGQLFGGLVRDIRRRYPYYLSDITDAFSPQVLAAVIFIYFAALSPAITFGGLLGEKTRNQMGVSELLISTAVQGILFALLGAQPLLVVGFSGPLLVFEEAFFSFCETNGLEYIVGRVWIGFWLILLVVLVVAFEGSFLVRFISRYTQEIFSFLISLIFIYETFSKLIKIFQDHPLQKTYNYNVLMVPKPQGPLPNTALLSLVLMAGTFFFAMMLRKFKNSSYFPGKLRRVIGDFGVPISILIMVLVDFFIQDTYTQKLSVPDGFKVSNSSARGWVIHPLGLRSEFPIWMMFASALPALLVFILIFLESQITTLIVSKPERKMVKGSGFHLDLLLVVGMGGVAALFGMPWLSATTVRSVTHANALTVMGKASTPGAAAQIQEVKEQRISGLLVAVLVGLSILMEPILSRIPLAVLFGIFLYMGVTSLSGIQLFDRILLLFKPPKYHPDVPYVKRVKTWRMHLFTGIQIICLAVLWVVKSTPASLALPFVLILTVPLRRVLLPLIFRNVELQCLDADDAKATFDEEEGRDEYDEVAMPV
# Variants of: B1
# Conditions: Homo sapiens, reversible: No, structure 1HYN, whole UniProt chain shown; for denaturant midpoint (higher = more stable): 24 °C, Urea, Fluorescence, sodium phosphate sodium borate 50 mM 50 mM, sodium chloride 70 mM; for Tm / change of melting temperature, mutant - wild type (higher = more stable): Thermal, sodium phosphate 10 mM
# [1] = pH 7.5, DSC, sodium chloride 50 mM
# [2] = pH 7, CD, sodium fluoride 50 mM
Variant,denaturant midpoint (higher = more stable) (pH 7),Tm [1],"change of melting temperature, mutant - wild type (higher = more stable) [1]",Tm [2],"change of melting temperature, mutant - wild type (higher = more stable) [2]"
E40K,4.73 M,64.9 °C,-1.3 °C,–,–
G130R,4.85 M,65.5 °C,-0.7 °C,68.7 °C,-0.3 °C
P327R,4.56 M,–,–,64 °C,-5 °C
K56E,–,66.5 °C,0.3 °C,67.7 °C,-1.3 °C

# Reference: FireProtDB (doi:10.1021/bi051692c)
